Measured values as given in US20150037339A1 (Regeneron, published 2015).

T1: Activin AC (human, UniProt P55103 237-352)
T1 construct: Heterodimer of one betaA and one betaC subunit; bought (R&D Systems #4879-AC)
T1 sequence 1: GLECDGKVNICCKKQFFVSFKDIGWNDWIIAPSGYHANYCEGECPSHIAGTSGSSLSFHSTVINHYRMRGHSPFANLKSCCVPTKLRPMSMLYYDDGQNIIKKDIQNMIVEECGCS
T1 sequence 2: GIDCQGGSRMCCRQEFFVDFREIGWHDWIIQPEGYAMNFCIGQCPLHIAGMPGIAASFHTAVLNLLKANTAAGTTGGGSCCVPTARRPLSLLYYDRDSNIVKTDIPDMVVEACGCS

T2: hBMP6 (human, UniProt P22004 382-513, limits assumed)
T2 construct: Bought protein
T2 sequence (looked up): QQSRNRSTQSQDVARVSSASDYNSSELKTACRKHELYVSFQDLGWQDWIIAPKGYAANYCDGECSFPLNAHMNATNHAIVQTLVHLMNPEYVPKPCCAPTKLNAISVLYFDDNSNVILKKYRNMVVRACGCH

T3: hBMP9 (human, UniProt Q9UK05 320-429)
T3 construct: Bought protein
T3 sequence (looked up): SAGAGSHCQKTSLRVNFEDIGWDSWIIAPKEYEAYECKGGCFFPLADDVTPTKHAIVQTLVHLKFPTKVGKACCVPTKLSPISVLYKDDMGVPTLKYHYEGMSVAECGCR

T4: Activin A (human, UniProt P08476 311-426)
T4 construct: Homodimer of two betaA subunits; bought (R&D Systems #338-AC); also called inhibin-betaA dimer
T4 sequence: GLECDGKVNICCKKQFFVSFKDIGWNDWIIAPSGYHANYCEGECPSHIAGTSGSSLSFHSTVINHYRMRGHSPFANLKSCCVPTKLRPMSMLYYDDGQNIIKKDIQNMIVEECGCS

T5: Activin AB (human, UniProt P08476 311-426; P09529 293-407)
T5 construct: Heterodimer of one betaA and one betaB subunit; bought (R&D Systems #1006-AB-005 / #1066-AB)
T5 chain 1: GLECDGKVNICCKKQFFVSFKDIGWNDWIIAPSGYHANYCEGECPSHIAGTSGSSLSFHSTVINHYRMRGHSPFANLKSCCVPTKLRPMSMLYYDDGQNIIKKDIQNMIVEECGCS
T5 chain 2: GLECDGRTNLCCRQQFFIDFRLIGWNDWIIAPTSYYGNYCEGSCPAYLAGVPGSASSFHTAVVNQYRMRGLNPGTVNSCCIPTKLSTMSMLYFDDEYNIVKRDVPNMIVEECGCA

T6: hBMP4 (human, UniProt P12644 293-408)
T6 construct: Bought protein
T6 sequence (looked up): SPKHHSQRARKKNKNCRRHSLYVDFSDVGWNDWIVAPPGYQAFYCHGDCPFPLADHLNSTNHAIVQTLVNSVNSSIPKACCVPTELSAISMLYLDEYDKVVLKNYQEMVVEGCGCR

T7: Activin B (human, UniProt P09529 293-407)
T7 construct: Homodimer of two betaB subunits; bought (R&D Systems #659-AB)
T7 chain: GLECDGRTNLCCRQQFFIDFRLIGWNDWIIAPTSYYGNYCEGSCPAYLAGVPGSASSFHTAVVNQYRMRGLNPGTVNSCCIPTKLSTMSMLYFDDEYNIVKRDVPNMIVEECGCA


How the values were obtained:
Activin AC [1] = molecular target: T1, Activin AC; experiment: SPR (Biacore), mAb captured on anti-Fc, Activin AC injected, 37 C
Experimental: (§1) Antibody-antigen association was monitored for 240 seconds while dissociation in buffer was monitored for 600 seconds. Kinetic association and dissociation rate constants were determined by processing and fitting the data using Scrubber software version 2.0c. Binding equilibrium dissociation constants (KD) and dissociative half-lives (t_{1/2}) were then calculated from the kinetic rate constants as: KD (M)=kd/kₐ and t_{1/2} (min)=[ln 2/(60*kd)]. (NB=no binding observed under the conditions used; NT=not tested).

Activin AC [2] = molecular target: T1, Activin AC; experiment: SPR (Biacore 4000), captured on anti-human Fc, 200 nM ligand injected, 37 C
Experimental: (§2) For the binding experiment, a Biacore 4000 instrument was used. […] All Biacore binding studies were performed in HBS-T running buffer (0.01 M HEPES pH 7.4, 0.5 M NaCl, 3 mM EDTA, 0.5 mg/ml bovine serum albumin, 0.05% v/v Surfactant P20). […] All binding measurements were performed at 37° C. […] Over the captured antibody surface was injected the TGF-beta family ligands through concentrations ranging from 3.1 nM to 200 nM.

hBMP2 = molecular target: T8, hBMP2 (human, UniProt P12643 283-396); experiment: as above
T8 construct: Bought protein; also called BPM2
Experimental: as §2

hBMP6 = molecular target: T2, hBMP6; experiment: as above
Experimental: as §2

hBMP9 = molecular target: T3, hBMP9; experiment: as above
Experimental: as §2

Activin A [3] = molecular target: T4, Activin A; experiment: as above
Experimental: as §2

Activin AB [4] = molecular target: T5, Activin AB; experiment: as above
Experimental: as §2

GDF11 = molecular target: T9, GDF11 (human, UniProt O95390 299-407); experiment: as above
T9 construct: Bought protein; also called hGDF11
Experimental: as §2

hBMP4 = molecular target: T6, hBMP4; experiment: as above
Experimental: as §2

GDF8 = molecular target: T10, GDF8 (human, UniProt O14793 267-375); experiment: as above
T10 construct: Bought (R&D Systems #788-G8); also called hGDF8; growth and differentiation factor-8
Experimental: as §2

Activin B [5] = molecular target: T7, Activin B; experiment: as above
Experimental: as §2

Activin AB [6] = molecular target: T5, Activin AB; experiment: SPR (Biacore), mAb captured on anti-Fc, Activin AB injected, 25 C
Experimental: as §1

Activin AC [7] = molecular target: T1, Activin AC; experiment: cell-based or functional assay
Activin A [8] = molecular target: T4, Activin A; experiment: cell-based or functional assay
Activin AB [9] = molecular target: T5, Activin AB; experiment: cell-based or functional assay
Activin B [10] = molecular target: T7, Activin B; experiment: cell-based or functional assay
Activin AB [11] = molecular target: T5, Activin AB; experiment: SPR (Biacore), mAb captured on anti-Fc, Activin AB injected, 37 C
Experimental: as §1

Activin AC [12] = molecular target: T1, Activin AC; experiment: SPR (Biacore), mAb captured on anti-Fc, Activin AC injected, 25 C
Experimental: as §1

T8 sequence (P12643 283-396 limits assumed): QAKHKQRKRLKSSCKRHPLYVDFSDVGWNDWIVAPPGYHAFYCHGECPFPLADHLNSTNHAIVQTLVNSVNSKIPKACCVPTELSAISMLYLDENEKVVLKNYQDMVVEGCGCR
T9 sequence (O95390 299-407 limits assumed): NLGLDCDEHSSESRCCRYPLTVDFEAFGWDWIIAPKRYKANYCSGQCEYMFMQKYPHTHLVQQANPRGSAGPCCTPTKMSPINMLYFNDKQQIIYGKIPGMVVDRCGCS

| 50 nM Ag Bound (RU) (Activin AC [1]) | Kd (Activin AC [1]) [nM] | koff (Activin AC [1]) [s⁻¹] | kon (Activin AC [1]) [M⁻¹ s⁻¹] | t1/2 (Activin AC [1]) [min] | 50 nM Ag Bound (RU) (Activin AB [6]) | Kd (Activin AB [6]) [nM] | koff (Activin AB [6]) [s⁻¹] | kon (Activin AB [6]) [M⁻¹ s⁻¹] | t1/2 (Activin AB [6]) [min] | IC50 [M], inhibition of 4 nM Activin AC in A204/CAGAx12-Luc Smad2/3-luciferase bioassay (Activin AC [7]) [M] | IC50 [M], inhibition of 100 pM Activin A in A204/CAGAx12-Luc Smad2/3-luciferase bioassay (Activin A [8]) [M] | IC50 [M], inhibition of 30 pM Activin AB in A204/CAGAx12-Luc Smad2/3-luciferase bioassay (Activin AB [9]) [M] | IC50 [M], inhibition of 50 pM Activin B in A204/CAGAx12-Luc Smad2/3-luciferase bioassay (Activin B [10]) [M] | 50 nM Ag Bound (RU) (Activin AB [11]) | Kd (Activin AB [11]) [nM] | koff (Activin AB [11]) [s⁻¹] | kon (Activin AB [11]) [M⁻¹ s⁻¹] | t1/2 (Activin AB [11]) [min] | 50 nM Ag Bound (RU) (Activin AC [12]) | Binder | further results |
| --- | --- | --- | --- | --- | --- | --- | --- | --- | --- | --- | --- | --- | --- | --- | --- | --- | --- | --- | --- | --- | --- |
| 32.6 | 3.75 | 0.00331 | 881000 | 3.5 | 28.2 | 0.0341 | 0.000261 | 7.66e+06 | 44.2 | 1.3e-09 | 2e-10 | 1.4e-10 | 1.3e-10 | 33.9 | 0.0443 | 0.000458 | 1.03e+07 | 25.2 | 30.1 | H4H10436P2 (antibody, human IgG4, V domains shown) VH: QVQLVESGGGVVQPGRSLRLTCVASGFTVSSYGMHWVRQAPGKGLEWVAVMFYDESKKYYADSVKGRFTISRDNSKNTLYLQMNSLRVEDTAVYYCARDEQLDFEYWGQGTLVTVSS VL: not shown | binding response (resonance units) for 200 nM ligand (Activin AC [2]): 55.6 RU; binding response (resonance units) for 200 nM ligand (hBMP2): 14.9 RU; binding response (resonance units) for 200 nM ligand (hBMP6): 4 RU; binding response (resonance units) for 200 nM ligand (hBMP9): 11.7 RU; binding response (resonance units) for 200 nM ligand (Activin A [3]): 56.5 RU; binding response (resonance units) for 200 nM ligand (Activin AB [4]): 54.3 RU; binding response (resonance units) for 200 nM ligand (GDF11): 0 RU; binding response (resonance units) for 200 nM ligand (hBMP4): 19.3 RU; binding response (resonance units) for 200 nM ligand (GDF8): -0.5 RU; binding response (resonance units) for 200 nM ligand (Activin B [5]): 60.1 RU; Kd (Activin AC [12]): 2.24 nM; koff (Activin AC [12]): 0.00156 s⁻¹; kon (Activin AC [12]): 698000 M⁻¹ s⁻¹; t1/2 (Activin AC [12]): 7.4 min |
| 13.3 | 1.05 | 0.000755 | 718000 | 15.3 | 15.5 | 0.177 | 0.000526 | 2.97e+06 | 22 | 7.5e-10 | 2.8e-10 | 4.3e-10 | 5.2e-09 | 17.7 | 0.314 | 0.00163 | 5.2e+06 | 7.1 | 11.8 | H4H10440P2 (antibody, human IgG4, V domains shown) VH: EVQLVESGGGVVQPGGSLRLSCAASTFTFDDFAMHWVRQAPGKGLEWVSLITGDGGSTYYADPVKGRFTISRDNSKNSLYLQMNSLRTEDTALYYCVKDWWIAARPDYYYYGMDVWGQGTTVTVSS VL: not shown | Kd (Activin AC [12]): 0.442 nM; koff (Activin AC [12]): 0.000227 s⁻¹; kon (Activin AC [12]): 513000 M⁻¹ s⁻¹; t1/2 (Activin AC [12]): 50.8 min |
